In patent US20100249184A1, “INDUCTION AND/OR MAINTENANCE OF TUMOR DORMANCY BY DISRUPTION OF UROKINASE PLASMINOGEN ACTIVATOR RECEPTOR-INTEGRIN INTERACTION” (MOUNT SINAI SCHOOL OF MEDICINE, priority 2007, published 2010):

Experiments:
[1] = target: T1, purified human α5β1-integrin (Homo sapiens, UniProt P05556+P08648); assay: Solid phase dot-ELISA: α5β1-integrin binding to immobilized uPAR peptides and suPAR; details: for α5β1-integrin binding to immobilized peptide: peptide immobilized on nitrocellulose, α5β1-integrin 750 ng/ml; for reduction of integrin binding to immobilized uPAR: α5β1-integrin pre-incubated 15 min with 100 fold molar excess of peptide, suPAR 1.5 μg
T1 construct: purchased Chemicon International (Temecula, Calif.)
Protocol: FIGS. 1A-H show the interaction between α5β1-integrin and immobilized uPAR and uPAR-derived synthetic peptides through solid-phase dot-ELISA. […] Bound integrin was detected with anti-α5 integrin antibody followed by goat anti-rabbit IgG (H+L) HRP conjugated secondary antibody and developed with enhanced chemiluminescence (“ECL”). FIG. 1B is a graph showing that binding of integrin to suPAR is saturable. SuPAR (1.5 μg) was immobilized on nitrocellulose membrane in triplicates, incubated with 0, 0.1, 0.5, 1, 2, and 4 μg/ml of α5β1-integrin and tested for integrin binding as in FIG. 1A. The dots were scanned with NIH Image. Mean and SE are shown. […] Peptides representing regions located in each of the three uPAR-domains were immobilized, incubated with α5β1-integrin, and analyzed as in FIG. 1A. Only peptide 240-248 binds α5β1-integrin. FIG. 1D is a graph showing that peptide 240-248 inhibits integrin binding to suPAR. The α5β1-integrin (750 ng/ml) was pre-incubated for 15 min at room temperature with 100 fold molar excess of 240-248 or 17-24 peptides, or with no peptide (Control) and the mixtures were applied to immobilized suPAR (1.5 μg), 2 dots per mixture, and developed as in FIG. 1A. The dots were scanned with NIH Image. The results (bars) show % of control, the lines show range. FIG. 1E is a graph showing binding of α5β1- and α3β1-integrin to suPAR and peptide 240-248. Dot-ELISA was performed in duplicate as in FIG. 1A, except that purified α5β1-integrin and α3β1-integrin (750 ng/ml) were used. Bound integrins were detected with the appropriate previously titrated antibodies followed by goat anti-rabbit IgG (H+L) HRP conjugated secondary antibody and detection with ECL. The graph represents the mean and range of two values: α5β1-integrin binding to peptide 240-248 (▪) or SuPAR (▴); α3β1-integrin binding to peptide 240-248 ([…]) and SuPAR (x). […] Peptide 240-248 (domain III), 17-24 (domain I), and the S245A mutant of peptide 240-248 were immobilized and tested for integrin binding as in FIG. 1A. FIGS. 1G-H show the crystal structure of human uPAR shown as a surface representation. The three individual domains of uPAR in FIG. 1G are indicated as follows: D1 is on the right side, DII is on the top of the model, and Diii is on the left of the model. In FIG. 1H, the order of the domains is inversed. […] The location of the COOH-terminal in uPAR domain III harboring the GPI-anchor is indicated by the arrow (FIG. 1H). FIGS. 1G-H were created by the program PyMol (DeLano Scientific) using the coordinates 1YWH.
FIGS. 2A-B show solid phase dot-ELISA of suPAR. […] Binding was detected as in FIG. 1A and the dots were scanned with NIH Image. Mean of the two-scanned value for each suPAR concentration are shown in the bottom panel. Mutation of residues in the 239-249 sequence reduced the integrin binding by ˜50 to 94%. suPAR^E33A (▪), suPAR^wt (▴), suPAR^R239A (♦), suPAR^H249A (x), suPAR^Q248A (∘), suPAR^M246A ([…]), suPAR^S245A (□).
Synthetic uPAR-derived peptides and mutant proteins were diluted to 0.5, 1, and 2 μg/100 μl of PBS. […] The strips, pinned to the bottom of a plastic box, were washed with TBS with 0.1% Tween 20, overlaid with 500 μl of rabbit anti-integrin α5 polyclonal antibody (1:650) for 1 hr at RT, washed with TBST twice, incubated with goat anti-rabbit IgG (H+L) HRP conjugated secondary antibody (1:2000) for 1 hr, washed 3 times with TBST, and developed with ECL. The dots were scanned with NIH image.

HEK293 cells = assay: Adhesion assay to fibronectin, transfected HEK293 cells; type: cell-based; details: HEK293-uPAR^wt cells; peptide 20 or 200 μM, 15 min
Protocol: HEK293 cells transiently transfected with pcDNA3.1, or expression constructs for uPAR^wt or uPAR^S245A were detached 40 hrs after transfection and 1.5×10^5 cells were seeded on fibronectin (4 μg/ml in a 48-well plate) for 15 and 30 min at 37° C. Cell adhesion was quantified as described in the Examples. The results shown are mean (SD) of 2 individual experiments, 4 determinations for each cell type. Two additional experiments were performed with similar results. […] The cells were divided into 2 aliquots and one aliquot was incubated for 10 min with anti-uPAR(R^2) antibody (10 μg/ml). Cells (1.2×10^5) were seeded onto wells of a 48-well plate and the adhesion to fibronectin tested as in FIG. 4A. The results are mean (SD) of 6 determinations. […] Cells were seeded onto 96-well plates and adhesion to fibronectin tested as in FIG. 4A. The results are mean (SD) of 3 determinations for each peptide. The experiment was repeated twice.
HEK293 cells were transiently transfected with pcDNA3.1, uPAR^wt, or uPAR^S245A. […] Following 15 and 30 min incubation at 37° C., the cells were washed twice with PBS with CaCl2 and MgCl2, fixed with 1% glutaraldehyde, stained with 1% crystal violet for 10 min, washed, dried, destained with 10% methanol and 5% acetic acid, and the OD of the extracted dye was measured in triplicate using the ELISA microplate-reader ELX800 from Bio-Tek Instruments. […]

T1 sequence (P08648 42-894 limits assumed): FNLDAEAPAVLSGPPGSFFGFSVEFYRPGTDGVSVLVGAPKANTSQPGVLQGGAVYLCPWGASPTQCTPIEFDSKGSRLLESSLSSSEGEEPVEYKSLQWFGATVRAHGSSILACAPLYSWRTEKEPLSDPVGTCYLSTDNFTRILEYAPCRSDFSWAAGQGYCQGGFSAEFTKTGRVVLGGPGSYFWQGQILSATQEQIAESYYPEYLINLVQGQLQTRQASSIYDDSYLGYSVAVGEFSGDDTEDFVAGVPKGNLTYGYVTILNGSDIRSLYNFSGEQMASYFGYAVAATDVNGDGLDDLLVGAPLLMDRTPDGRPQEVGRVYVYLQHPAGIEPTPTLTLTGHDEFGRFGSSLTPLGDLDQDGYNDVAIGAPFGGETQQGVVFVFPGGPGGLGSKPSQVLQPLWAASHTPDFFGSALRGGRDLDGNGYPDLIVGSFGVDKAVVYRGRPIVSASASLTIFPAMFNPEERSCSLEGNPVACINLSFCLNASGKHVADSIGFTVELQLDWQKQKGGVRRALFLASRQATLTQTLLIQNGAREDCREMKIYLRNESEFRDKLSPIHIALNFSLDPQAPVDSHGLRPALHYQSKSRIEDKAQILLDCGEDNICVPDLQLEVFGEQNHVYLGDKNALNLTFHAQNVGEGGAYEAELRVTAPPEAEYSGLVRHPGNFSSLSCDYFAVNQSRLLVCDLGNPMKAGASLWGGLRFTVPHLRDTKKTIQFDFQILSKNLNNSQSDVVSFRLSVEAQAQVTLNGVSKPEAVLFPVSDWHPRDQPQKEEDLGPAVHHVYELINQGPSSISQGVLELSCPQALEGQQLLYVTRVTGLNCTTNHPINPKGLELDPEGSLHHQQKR
T1 sequence (P08648 895-1049 limits assumed): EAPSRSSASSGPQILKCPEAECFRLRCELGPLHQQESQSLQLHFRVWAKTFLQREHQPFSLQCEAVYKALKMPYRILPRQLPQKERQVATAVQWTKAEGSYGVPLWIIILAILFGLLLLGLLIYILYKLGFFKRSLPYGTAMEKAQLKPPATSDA
T1 sequence (P05556 21-798): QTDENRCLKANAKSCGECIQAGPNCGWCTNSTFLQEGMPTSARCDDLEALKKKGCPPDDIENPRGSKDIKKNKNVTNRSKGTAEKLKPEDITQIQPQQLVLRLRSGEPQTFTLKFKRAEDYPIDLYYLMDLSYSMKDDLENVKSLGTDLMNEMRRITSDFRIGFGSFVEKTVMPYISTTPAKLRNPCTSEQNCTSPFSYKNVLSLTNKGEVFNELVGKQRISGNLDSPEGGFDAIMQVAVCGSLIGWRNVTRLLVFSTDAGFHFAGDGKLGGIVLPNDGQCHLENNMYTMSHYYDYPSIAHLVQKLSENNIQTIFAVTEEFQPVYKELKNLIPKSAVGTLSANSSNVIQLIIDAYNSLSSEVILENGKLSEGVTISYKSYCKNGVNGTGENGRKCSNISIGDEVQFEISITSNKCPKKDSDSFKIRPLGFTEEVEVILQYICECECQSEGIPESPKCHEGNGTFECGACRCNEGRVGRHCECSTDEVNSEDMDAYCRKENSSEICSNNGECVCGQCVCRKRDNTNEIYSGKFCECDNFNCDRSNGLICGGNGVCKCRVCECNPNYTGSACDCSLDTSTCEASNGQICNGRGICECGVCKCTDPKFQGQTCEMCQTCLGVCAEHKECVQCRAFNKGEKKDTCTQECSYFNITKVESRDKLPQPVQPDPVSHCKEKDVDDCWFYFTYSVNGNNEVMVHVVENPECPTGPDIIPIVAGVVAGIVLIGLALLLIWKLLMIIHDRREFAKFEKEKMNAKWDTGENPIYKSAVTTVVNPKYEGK

| Substance | α5β1-integrin binding to immobilized peptide [1] | reduction of integrin binding to immobilized uPAR [1] | adhesion to fibronectin (HEK293 cells) |
| --- | --- | --- | --- |
| peptide 17-24: synthetic uPAR-derived peptide, domain I amino acid 17-24: CALGQDLC (SEQ ID NO:5); negative control [reference compound] | no binding | negligible effect | no effect |
| peptide 240-248: synthetic uPAR-derived peptide, domain III residues 240-248: GCATASMCQ (SEQ ID NO:9) | bound α5β1-integrin in a dose-dependent fashion | more than 70% | reduced adhesion to fibronectin |
